# Measured values: the RNAGym collection of RNA variant scans (doi:10.1073/pnas.2313332121)
# B1: TPR t1 (parent)
# chain: GACCAAUCUGCCCUCAGAGCUCGAGAACAUCUUCGGAUGCAGAGGAGGCAGGCUUCGGUGGCGCGAUAGCGCCAACGUCCUCAACCUCCAAUGCAUCCCACCACAUGAUGAUGCCUGAAGAGCCUUGGUUUUUUG
# Variants of: B1
# Test: polymerase ribozyme fitness, log enrichment relative to wild type (log ratio); higher = more active; in vitro selection for triplet polymerase activity
# Procedure, shortened: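 A single round of triplicate in vitro selection, including frozen incubation at −7 °C, was applied to PCR-built, transcribed mutant libraries of each subunit of a heterodimeric triplet polymerase ribozyme. Illumina sequencing of input and output libraries retained genotypes with ≥10 input reads and ≥1 read per output. Fitness is the base-2 logarithm of genotype enrichment divided by wild-type enrichment, from inverse-variance-weighted replicate averages.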
row,Variant,polymerase ribozyme fitness (log ratio)
1,GACCAAUCUGCGCUCAGAGCUCGAGUACAUCUUUGGAUGCAUAUGAGGCAGGCUUCGGUGGGGCGAUAGCGCCAACGUCCUCAACCUCCAAUGCACCCCACCACAAGAAGAUGCGUGAAGAGCCUUGGUUUUUUG,-6.33
2,GACCAAUCUGUCCUCAGAGCUCGAGGACAUCUUCGGAUGCAGAGAAGGCAGGCUUCGAUGGCGCGAUAGCGCCAACGUCCUCAACCUCCAAUGCAUCCCACCACAUGAUGAUGCCUGAAGAGCCUUGGUUUUUUG,-5.7
3,GACCAAUCUGCCCUCAGAGCUCGAGAACAUCUUCGGAUGCAGAGGAGGCAGGCUUCGGUGGCGCGAUAGCGCCAACGUCCUCAACCUCCAAUGCAUCCCACCACAUGAUGAUUCCUGAAAAGCCUUGGUUUUUUG,-2.2
4,GACCAAUCUGCCCUCAGAGCUCGAGGACAUCUUCGGAUGCAGAGGAGGCAGGCUUCGGUGGCGCGAUAGCGCCAACGUCCUCAGCCUCCAAUGCAUCCCACCACAUGAUGAUGCCUGAAAAGCCUUGGUUUUUUG,-2.95
5,GACCAAUCUGCCCUCAGAGCUCGAGUACAUCUUCGGAUGCAUAGGAGGCAGGCUUCGGUGGCGCGAUACCGACAACGUUCUCAACCUCCAAUGCAUCCCACCACAUGAUCAUGCCUGAAGAGCCUUGGUUUUUUG,-7.46
6,GACCAAUCUGCCCUCAGAGCUCGAGAACAUCUUCGGAUGCAGAGGAGGCAGGCUUCGGUGUCGCGAUAGCGCCAACGUCCUAAACCUCGAAUGCAUCCCAAAACAUGAUGACGCCUGAAGAGACUUGGUUUUUUG,-7.12
7,GACCAAUCUGCCCUCAGAGCUCGAGAACAUCUUCGGAUCCAGAGGAGGCAGGCUUCGGUGGCGCGAUAGCGCCAACGACCUCAACCUCCAAUGAAUCCCACCACAUGAUGAUGCCUGAAGAGAAUUGAUUUUUUG,-0.0279
8,GACCUAUCUGCCCUCAGAGCUCGAGAACAUCUUCGGAUGCAGAGGAGGCAGGCUUCGGUGGCGCGAUAGCGCCAACGUCCUCAACCUCCAAUGCAUCCCACCACAUGAUGAUGCCUGAAGUGCCUUGGUUUUUUG,1.1
9,GACCAAUCUGACCUCAGAGCUCGAGAACAUCUUCGGAUGCAGAGGAGGCAGGCUUCGGUUGCGCGAUAGCGCCAACGUCCUCAACCUCCAAUGCAUCCCACCACAUGAUGAUGCCUGAAGAGCCUUGGUUUUUUG,-0.589
10,GACCAAUCUGCCCUCAGAGCUCGAGAACAUCUUCGGUUGCAGAGGAGGCAGGCUUCGGUGGCGCGAUAGCGCCAACGUCCUCAACCUCCAAUGCAUCCCACCACAGGAUGAUGCCUGAAGAGGCUUGGUUUUUUG,0.0565
11,GACCAAUCUGCCCUCAGAGCUCGAGAACAUCUUCGGAUGCAGAGGAGGCAGGCUUCGGUGGUGCGAUAGCGCCAACGUCCUCAACCUCCAAUGCAUCCCACCACAUGAUGAUGCCUGAAGAGCCUUGCUUUUUUG,-3.37
12,GACCAAUCUGCCCUCAGAGUUCGAGAACAUCUUCGGAUGCAGAGGAGGCAGGCUUCGGUGGCGCGAUAUCGCCAACGUCCUCAACCUCCAAUGCAUCCCACCACAUGAUGAUGCCUGAACAGCCUUGGUUUUUUG,-0.787
13,GACCAAUCUGCCCUCAGAGCUCGGGAACAUCUUCGGAUGCAGAGGAGACAGGCUUCGGUGGCGCGAUAGCGCCAACGUCCUCGACCUCCAAUGCAUCCCACCACAUGAUGAUGCCUGAAGAGCCUUGGUUUUUUG,-2.89
14,GACCAAUCUGCCCUCAGAGCUCGAGAACAUCUUCGGAUGCAGAGGUGACAGGCUUCGGUGGCGCGAUAGCGCCAACGUCCUCAACCACCAAUGCAUCCCACCACAUGAUGAUGCCUGAAAAGCCUUGGCUUUUUG,-0.344
15,GACCAAUCUGCCCUCAGAGCUCGAGAACAUCUUCGGAUGCAGAGGAGGCAGGCUUCGGUGGCGCGAUAUCGCCAACGUCCUCAACCUCCAAUUCAUCCCACCACAUGAUGAUGCCUGAAAAGCCGUGGGUUUUUG,-0.716
16,GACCAAUCUGCCCACAGAGCUCGAGAACAUCUUCGGAUGCAGAGGAGGCAGGCUUCGGUGGCCCGAUAGCGCCAACGUCCUUAACCUCCAAUGCAUCCCACCACAUGAUGAGGCCUGAAGAGCCUUGGUUUUUUG,-1.65
17,GACCAAUCUGCCCUCAGAGCUCGAGAACAUCUUCGGAUGCAGAGGAGGCAGGCUUCGGUGUCGCGAUAGCGCCAACGUCCUCAACCGCCAAUGCAUCCCACCACAAGAUGAUGCCUGAAGAGCCUUGGUUUUUUG,-0.129
18,GACCAAUCUGCCCUCAGAGCUCGAGAACAUCUUCGGAUGCAGGGGAGGCAGGCUUCGGUGGCGCGAUAGCGGCAACGUCCUCAACCUCCAAUGCAUCCCACCACAUGAUGAUGCCUGAAGAGCCUUGGUUUAUUC,-2.2
19,GACCAAUCUGCCCUCAGAGCUCGAGAACAUCUUCGGAUGCAGAGGAGGCAGGCUUCAGUGGCGUGAUAGCGCCAACGCCCUCAACCCCCAAUGCAUCCCACCAUAUGAUGAUACCUGAAGAGCCUUGGUUUUUUG,-1.61
20,GACCAAUCUGCCCUCAGAGCUCGAGAACAUCUUCGGAUGCAGAGGAGGCAGGGUUCGGUGGCGCGAUAGCGCCAACGUCCUCAACCUCCAAUGCAUCCCACCACAUGAUGAUGCGUGAAGAGCCUUGGUUUUUUG,-1.44
21,GACCAAUCUGCCCUCAGAGCUCGAGAACAUCUUCGGAUGCAGAGGAGGCAGGAAUCGGUGGUGCGAUAGCGCCAACGUCAUCAACCUCCAAUGCAUCCCACCACAUGAUGAUGACUGAAGAGCGAUGGUUUUUUG,-6.53
